Measurements taken from patent publication US20210380702A1 (Regeneron, published 2021).
“And” between values parts separate entries of the source, which are not always exact repeats. Equal values may be shown once.

Key:
[1] = target: T1, full length human PD-L1 (amino acids 1 to 290 of NP_054862.1) on transfected cells (human, UniProt Q9NZQ7 19-290); assay: FACS, 100 nM antibody
T1 construct: also called HEK293/hPD-L1; Raji/hPD-L1
Protocol: (§1) The binding of anti-PD-L1 antibodies to a human embryonic kidney cell line (HEK293; ATCC, #CRL-1573) stably transfected with full length human PD-L1 (amino acids 1 to 290 of accession number NP_054862.1) (HEK293/hPD-L1) was determined by FACS.
(§2) For the assay, adherent cells were detached using enzyme-free dissociation buffer and blocked with complete medium. Cells were centrifuged and resuspended at a concentration of 2.8×10\hat{ }6 cells/mL in cold PBS containing 2% FBS. […] Cells were washed with D-PBS containing 2% FBS to remove unbound secondary detection reagents and fluorescence measurements were acquired using a HyperCyte (IntelliCyt, Inc.) flow cytometer. Data was analyzed using HyperCyte software.

[2] = target: T1, full length human PD-L1 (amino acids 1 …); assay: cell-based or functional assay
[3] = target: T2, recombinant cynomolgus monkey PD-L1 expressed with a C-terminal mouse IgG2a Fc tag (cynomolgus monkey); assay: SPR (Biacore), mAb captured, 37C
T2 construct: also called MfPD-L1-mFc; monkey PD-L1-mFc

[4] = target: T1, full length human PD-L1 (amino acids 1 …); assay: FACS, 100 nM antibody, HEK293/hPD-L1 cells
Protocol: as §1, §2

[5] = target: T3, recombinant human PD-L1 (amino acids 19-239 of NP_054862.1) expressed with a C-terminal mouse IgG2a Fc tag (human); assay: competition ELISA: 0.5 nM hPD-L1-mFc binding to coated hPD-1-hFc
T3 construct: called dimeric; also called hPD-L1-mFc
Protocol: (§3) The ability of monoclonal anti-PD-L1 antibodies to block human PD-L1 from binding to its binding partners, the human PD-1 and the human B7-1 receptors, was measured using two competition sandwich ELISA formats.
(§4) A dimeric human PD-1 protein comprised of a portion of the extracellular domain (amino acids 25-170 of accession number NP_005009.2 with a C93S change) that was expressed with a C-terminal hFc tag (hPD-1-hFc; SEQ ID: 350) and a dimeric human B7-1 protein comprised of a portion of the extracellular domain expressed with C-terminal hFc tag and hexahistidine tags (hB7-1-hFc-6His; R&D Systems, #140-B1) were separately coated at 2 μg/mL on a 96-well microtiter plate in a PBS buffer overnight at 4° C. […] These antibody-protein complexes were then incubated for 1 hour at room temperature (RT). […] The complexes were allowed to bind to the coated plates for 1 hour at RT. […] Samples were developed with a TMB solution (BD Biosciences, #51-2606KC and #51-2607KC) to produce a colorimetric reaction and neutralized with 1M sulfuric acid before measuring absorbance at 450 nm on a Victor X5 plate reader. Data analysis used a sigmoidal dose-response model within Prism™ software.

[6] = target: T3, recombinant human PD-L1 (amino acids …); assay: competition ELISA: 8 nM hPD-L1-mFc binding to coated hB7-1-hFc-6His
Protocol: as §3, §4

[7] = target: T4, recombinant human PD-L1 (amino acids 19-239 of NP_054862.1) expressed with a C-terminal human IgG1 Fc tag (human); assay: SPR (Biacore 3000): 100 nM hPD-L1-hFc + 500 nM mAb on captured hPD-1-mFc, 25C
T4 construct: also called hPD-L1-hFc
Protocol: Next, inhibition studies for anti-PD-L1 monoclonal antibodies expressed with human Fc were performed on Biacore 3000 instrument. […] The entire experiment was performed at 25° C. in HBST running buffer (0.01 M HEPES pH7.4, 0.15M NaCl, 3 mM EDTA, 0.05% v/v Surfactant P20). The real-time binding responses were monitored during the entire course of the experiment and the binding response at the end of every step was recorded.

T2 sequence (chain, as listed by the source limits assumed): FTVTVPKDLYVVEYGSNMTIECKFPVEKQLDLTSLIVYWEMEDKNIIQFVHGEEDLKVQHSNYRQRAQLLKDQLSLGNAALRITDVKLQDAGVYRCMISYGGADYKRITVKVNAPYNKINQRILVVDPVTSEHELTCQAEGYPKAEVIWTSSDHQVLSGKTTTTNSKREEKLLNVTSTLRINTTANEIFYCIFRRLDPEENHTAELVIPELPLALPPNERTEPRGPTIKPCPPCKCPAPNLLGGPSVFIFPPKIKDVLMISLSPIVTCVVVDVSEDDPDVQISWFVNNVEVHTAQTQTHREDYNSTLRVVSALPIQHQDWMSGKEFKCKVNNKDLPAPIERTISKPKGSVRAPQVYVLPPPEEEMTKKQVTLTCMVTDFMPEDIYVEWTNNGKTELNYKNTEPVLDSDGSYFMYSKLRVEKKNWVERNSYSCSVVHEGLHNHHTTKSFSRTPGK
T3 sequence (chain, as listed by the source limits assumed): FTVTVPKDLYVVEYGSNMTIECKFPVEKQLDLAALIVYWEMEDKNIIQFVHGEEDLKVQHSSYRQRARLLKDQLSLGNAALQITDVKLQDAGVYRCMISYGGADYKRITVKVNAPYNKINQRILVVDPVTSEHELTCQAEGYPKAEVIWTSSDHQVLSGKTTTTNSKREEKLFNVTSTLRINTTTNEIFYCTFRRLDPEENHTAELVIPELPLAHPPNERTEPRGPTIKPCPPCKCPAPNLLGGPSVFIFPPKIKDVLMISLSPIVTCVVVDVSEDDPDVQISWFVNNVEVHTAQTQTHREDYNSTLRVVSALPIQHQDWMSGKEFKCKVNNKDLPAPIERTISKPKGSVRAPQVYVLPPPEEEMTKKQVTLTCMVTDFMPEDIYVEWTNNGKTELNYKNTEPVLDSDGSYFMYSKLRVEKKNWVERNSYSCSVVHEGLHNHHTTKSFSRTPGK
T1 sequence (Q9NZQ7 19-290 limits assumed): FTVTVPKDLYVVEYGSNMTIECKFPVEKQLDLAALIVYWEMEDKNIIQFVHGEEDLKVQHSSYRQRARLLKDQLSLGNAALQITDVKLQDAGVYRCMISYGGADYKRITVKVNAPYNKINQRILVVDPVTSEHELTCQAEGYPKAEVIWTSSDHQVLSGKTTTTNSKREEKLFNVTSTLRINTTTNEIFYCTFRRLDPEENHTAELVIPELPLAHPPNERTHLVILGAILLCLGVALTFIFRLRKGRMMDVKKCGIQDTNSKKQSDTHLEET
T4 sequence (chain, as listed by the source limits assumed): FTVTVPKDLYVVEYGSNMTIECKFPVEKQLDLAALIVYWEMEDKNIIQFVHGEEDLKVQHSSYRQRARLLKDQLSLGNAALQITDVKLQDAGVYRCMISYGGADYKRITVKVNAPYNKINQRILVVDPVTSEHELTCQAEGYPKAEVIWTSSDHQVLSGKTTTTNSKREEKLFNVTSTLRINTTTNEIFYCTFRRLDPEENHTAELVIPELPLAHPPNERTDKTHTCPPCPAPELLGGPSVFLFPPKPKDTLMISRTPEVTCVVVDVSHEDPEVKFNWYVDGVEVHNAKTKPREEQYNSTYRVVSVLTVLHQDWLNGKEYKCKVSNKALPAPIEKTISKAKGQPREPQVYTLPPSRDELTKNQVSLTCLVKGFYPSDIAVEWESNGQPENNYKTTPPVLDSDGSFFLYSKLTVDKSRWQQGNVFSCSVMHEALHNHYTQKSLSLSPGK

Ratio of HEK293/hPD-L1 to HEK293 parental cells [1]	Emax mean [%] @ 100 nM [2] [%]	Kd [3]	koff [3]	kon [3]	t1/2 [3]	MFI [4] [MFI]	% maximum blocking [5] [%]	IC50 [5] [nM]	% maximum blocking [6] [%]	% Blocking [7] [%]	Concentration [M] of Antibody at 125% activation [2] [M]	IC50 [6] [nM]	Binder
97	103	0.319 nM	0.000502 s⁻¹	1.57e+06 M⁻¹ s⁻¹	23 min	228000	59	< 0.25	8	-193			H1H9396P2 (antibody, V domains shown, human IgG1 Fc (H1H prefix)) VH: QVQLVQSGAEVEKPGASVKVSCKASGYIFTHYGISWVRQAPGQGLEWVGWISPYNGYTDYAQKLQGRVTLTTDTSTTTAYMELRNLRSDDTAMYYCSRGRGPYWSFDLWGRGTLVTVSS VL: not shown
140	86.5	0.825 nM	0.000235 s⁻¹	284000 M⁻¹ s⁻¹	49 min	206000	39	< 0.25	-30	-448			H1H9382P2 (antibody, V domains shown, human IgG1 Fc (H1H prefix)) VH: EVQLVESGGGLVQPGGSLRLSCAASGFTVGTNFMNWVRQAPGKGLEWVSAIYSGGTANYADSVKGRFTISRDTSRNTLYLQMNSLRTEDTAVYYCARGGGMDVWGQGTTVTVSS VL: not shown
263	141	0.139 nM and 0.161 nM	0.000474 s⁻¹ and 0.000465 s⁻¹	3.41e+06 M⁻¹ s⁻¹ and 2.9e+06 M⁻¹ s⁻¹	24 min and 25 min	324000	100	< 0.25	100	91	1.86e-11	< 4	H1H9387P2 (antibody, V domains shown, human IgG1 Fc (H1H prefix)) VH: QVQLVQSGAEVKKPGSSVKVSCKASGGTFNTYVLSWVRQAPGQGLEWMGEIIPILGAANYAQNFQGRVTFTTDESTNTAYMDLSSLRSEDTAVYYCARDRTSGGFDPWGQGTLVTVSS VL: not shown

The remaining lines, values behind:

Binder	Ratio of HEK293/hPD-L1 to HEK293 parental cells [1]	Emax mean [%] @ 100 nM [2] [%]	Kd [3]	koff [3]	kon [3]	t1/2 [3]	MFI [4] [MFI]	% maximum blocking [5] [%]	IC50 [5] [nM]	% maximum blocking [6] [%]	% Blocking [7] [%]	Concentration [M] of Antibody at 125% activation [2] [M]	IC50 [6] [nM]
H1H9336P (antibody, V domains shown, human IgG1 Fc (H1H prefix)) VH: EVQLVESGGGLVQPGRSLRLSCAASGFTFDDFAMHWVRQAPGKGLEWVSGISWTGGNMDYANSVKGRFTISREDAKNSLYLQMNSLRAADTALYYCVKDIRGIVATGGAFDIWGRGTMVTVSS VL: DIQMTQSPSSLSASVGDRVTISCRASQTISTYLNWFQQKPGKAPKLLIYVVSSLQSGVPSRFSGSGSGTDFTLTISSLQPEDFATYYCQQSYSTPFTFGPGTKVDIK	168	163	0.0247 nM	4.6e-05 s⁻¹	1.86e+06 M⁻¹ s⁻¹	251 min	379000	100	< 0.25	99	84	9.81e-11	4.4
H1H9345P2 (antibody, V domains shown, human IgG1 Fc (H1H prefix)) VH: EVQLVESGGGLVQPGGSLRLSCAASGFTISTNYMNWVRQAPGKGLEWVAVIYSSGSTYYIDSVKGRFTISRLTSKNTVYLQMSSLNSEDTAVYYCARGIRGFDIWGQGTMVTVSS VL: not shown	121	89.2	0.339 nM	0.000292 s⁻¹	861000 M⁻¹ s⁻¹	40 min	228000	26	< 0.25	-34	-422		
H1H9354P2 (antibody, V domains shown, human IgG1 Fc (H1H prefix)) VH: EVQLVESGGGLVQPGGSLRLSCEASGFTVGVNHMNWVRQAPGKGLEWVSVIFSSGRTFYGDYVKGRLTIFRQTSQNTVYLQMNSLRSEDTAIYYCARGIGGLDIWGRGTMVTVSS VL: not shown	125	89.9	0.746 nM	0.000203 s⁻¹	272000 M⁻¹ s⁻¹	57 min	276000	34	0.53	-13	-428		
